Experimental data as given in patent US20080199879A1.

Key:
[1] = target: enzyme degradation product of the Aβ1-42 synthetic peptide (trypsin treated Aβ1-42 synthetic peptide); assay: electrochemiluminescence double antibody sandwich; 21F12 beads, ruthenium-labeled 3D6 detection; trypsin-treated Aβ1-42 sample against untreated control
[2] = target: Aβ1-42 synthetic peptide (produced by Peptide Institute, Inc.); assay: electrochemiluminescence double antibody sandwich; 21F12 on magnetic beads, ruthenium-labeled 3D6 detection; Aβ1-42 at 10 pg/mL
[3] = target: enzyme degradation product of the Aβ1-42 synthetic peptide (trypsin treated Aβ1-42 synthetic peptide); assay: electrochemiluminescence double antibody sandwich; 21F12 beads, ruthenium-labeled 3D6 detection; trypsin-treated Aβ1-42 sample
[4] = target: Aβ1-42 synthetic peptide (produced by Peptide Institute, Inc.); assay: electrochemiluminescence double antibody sandwich; 21F12 on magnetic beads, ruthenium-labeled 3D6 detection; Aβ1-42 at 100 pg/mL
[5] = target: Aβ1-42 synthetic peptide (produced by Peptide Institute, Inc.); assay: electrochemiluminescence double antibody sandwich; 21F12 on magnetic beads, ruthenium-labeled 3D6 detection; Aβ1-42 at 1 pg/mL
[6] = target: 15 L-β33-42 peptide+ruthenium complex-labeled polylysine-bound substance; assay: competitive electrochemiluminescence immunoassay, no competitor: labeled peptide composite (1 µg/ml) bound to bead-bound 21F12
[7] = target: Aβ1-42 synthetic peptide (produced by Peptide Institute, Inc.); assay: electrochemiluminescence double antibody sandwich; 21F12 on magnetic beads, ruthenium-labeled 3D6 detection; Aβ1-42 at 50 pg/mL
[8] = target: Aβ1-42 synthetic peptide (produced by Peptide Institute, Inc.); assay: electrochemiluminescence double antibody sandwich; 21F12 on magnetic beads, ruthenium-labeled 3D6 detection; Aβ1-42 at 0.5 pg/mL
[9] = target: Aβ1-42 synthetic peptide (produced by Peptide Institute, Inc.); assay: electrochemiluminescence double antibody sandwich; 21F12 on magnetic beads, ruthenium-labeled 3D6 detection; Aβ1-42 at 5 pg/mL
[10] = target: Aβ1-42 synthetic peptide (produced by Peptide Institute, Inc.); assay: electrochemiluminescence double antibody sandwich; 21F12 beads, ruthenium-labeled 3D6 detection; untreated Aβ1-42 control sample
[11] = target: Aβ1-42 synthetic peptide (produced by Peptide Institute, Inc.); assay: electrochemiluminescence double antibody sandwich; 21F12 on magnetic beads, ruthenium-labeled 3D6 detection; Aβ1-42 at 25 pg/mL
[12] = target: Aβ1-42 synthetic peptide (produced by Peptide Institute, Inc.); assay: competitive electrochemiluminescence immunoassay, no competitor: ruthenium-labeled 21F12 (0.1 µg/ml) bound to bead-bound Aβ1-42
[13] = target: 15 L-β33-42 peptide+ruthenium complex-labeled polylysine-bound substance; assay: competitive electrochemiluminescence immunoassay, no competitor: labeled peptide composite bound to bead-bound 21F12

Sequence of 15 L-β33-42 peptide+ruthenium complex-labeled polylysine-bound substance (peptide, as listed by the source): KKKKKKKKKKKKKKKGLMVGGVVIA

% (relative ratio of measured value, control sample = 100%) [1]: 9% | Difference from the blank (ECL value) [2]: 22400 | ECL value [2]: 22900 | ECL value [3]: 1090 | Difference from the blank (ECL value) [4]: 345000 | ECL value [4]: 345000 | Difference from the blank (ECL value) [5]: 1370 | ECL value [5]: 1840 | ECL value [6]: 17000 | Difference from the blank (ECL value) [7]: 160000 | ECL value [7]: 160000 | Difference from the blank (ECL value) [8]: 614 | ECL value [8]: 1080 | Difference from the blank (ECL value) [9]: 10300 | ECL value [9]: 10800 | ECL value [10]: 12800 | Difference from the blank (ECL value) [11]: 75300 | ECL value [11]: 75800 | ECL value [12]: 34400 | ECL value [13]: 18100
Substance: 21F12 mouse monoclonal antibody (produced by Innogenetics Inc.)
